Measured values published in patent US20050208042A1 (GENETICS INSTITUTE, published 2005).

B1: humanized 1F1 antibody, IgG2.M3 form (antibody, V domains shown)
VH: EVQLVQSGAEVKKPGASVKVSCKPSGFNIKDYYMHWVRQAPGQGLEWIGWIDPENGNTLYDPKFQGKATITADTSTSTAYMELSSLRSEDTAVYYCAREGLFFAYWGQGTLVTVSS
VL: DIQMTQSPSSLSASVGDRVTITCSVSSSISSSNLHWYQQKPGKAPKPLIYGTSNLASGVPSRFSGSGSGTDYTLTISSLQPEDVATYYCQQWSSYPLTFGQGTKVEIK
notes: Human gamma 2 constant region variant M3 (Val and Gly at positions 234 and 237 replaced with Ala) and human kappa light chain; also called hu1F1; the IgG2.M3 antibody
B2: humanized anti-human B7-2 mAb (humanized 3D1), isotype not stated in the example (antibody, V domains shown)
VH: QVQLVQSGAEVKKPGSSVKVSCKASGYTFTDYAIQWVRQAPGQGLEWIGVINIYYDNTNYNQKFKGKATMTVDKSTSTAYMELSSLRSEDTAVYYCARAAWYMDYWGQGTLVTVSS
VL: DIVLTQSPDSLAVSLGERATISCKSSQSLLNSRTRENYLAWYQQKPGQPPKLLIYWASTRESGVPDRFSGSGSGTDFTLTISSLQAEDVAVYYCTQSYNLYTFGQGTKVEIK
notes: Same variable regions; The entries include signal peptides (see the note of m2); also called humanized anti-B7-2; humanized anti-hB7-2
B3: humanized 3D1 antibody, IgG2.M3 form (antibody, V domains shown)
VH: B2 VH
VL: B2 VL
notes: Human gamma 2 constant region variant M3 (Val and Gly at positions 234 and 237 replaced with Ala; pVg2.M3 vector) and human kappa light chain; The entries include signal peptides (see the note of m2); also called humanized IgG2.M3 anti-human B7-2; hu3D1
B4: humanized 3D1 antibody, IgG4 form (antibody, V domains shown)
VH: B2 VH
VL: B2 VL
notes: Human gamma 4 constant region (pVg4 vector) and human kappa light chain (pVk); also called humanized IgG4 anti-human B7-2; hu3D1
B5: murine 3D1 monoclonal antibody (murine anti-human B7-2 mAb) (antibody, V domains shown)
VH: QVQLQQSGPELVRPGESVKISCKGSGYTFTDYAIQWVKQSHAKSLEWIGVINIYYDNTNYNQKFKGKATMTVDKSSSTAYMELARLTSEDSAIYYCARAAWYMDYWGQGTSVTVSS
VL: DIVLSQSPSSLAVSAGEKVTMSCKSSQSLLNSRTRENYLAWYQQKPGQSPKLLIYWASTRESGVPDRFTGSGSGTDFTLTISSVQAEDLAVYYCTQSYNLYTFGGGTKLEIK
notes: Hybridoma mouse antibody with kappa light chain; also called HF2.3D1; mouse 3D1

Experiments:
[1] = target: T1, human B7-1 (CD80) expressed on the cell surface (CHO/hB7-1 cells) (human, UniProt P33681 35-288); test: competitive binding against 125I-humanized 1F1 on CHO cells expressing rhB7-1
T1 construct: whole, on cells; Also used for native B7-1 on human PBL in the MLR; also called rhB7-1
T1 sequence (looked up): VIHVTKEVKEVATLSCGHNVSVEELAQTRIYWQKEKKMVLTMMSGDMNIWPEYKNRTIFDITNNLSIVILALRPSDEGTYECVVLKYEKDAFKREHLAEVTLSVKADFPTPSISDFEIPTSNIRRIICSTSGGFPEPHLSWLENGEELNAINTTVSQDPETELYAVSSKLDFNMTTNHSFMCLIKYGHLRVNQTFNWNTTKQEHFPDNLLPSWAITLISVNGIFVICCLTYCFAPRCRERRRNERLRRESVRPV
Experimental: (§1) The affinity of the mouse and humanized 1F1 antibodies for the B7-1 antigen was determined by competitive binding with radio-iodinated humanized 1F1 antibody. Three-fold serial dilutions of unlabeled mouse or humanized 1F1 antibodies were mixed with a fixed amount of radio-iodinated humanized 1F1 antibody (40,000-50,000 cpm per test) in PBS containing 2% fetal calf serum, 0.1% sodium azide. 3×10⁴ CHO cells expressing cell surface rhB7-1 were added subsequently and the mixture (in a total volume of 200 μL) was incubated for 2 hr at 4° C. with gentle shaking. The cell-antibody suspension was then transferred to Sarstedt Micro Tubes (part #72.702) containing 100 μL of 80% dibutyl phthalate-20% olive oil. After centrifugation in a microfuge, the Sarstedt tubes were plunged into dry ice for several minutes. Cell-bound ¹²⁵I was determined by clipping the tips of each tube (containing cell pellets) into scintillation vials and counting in a gamma counter. Bound and free counts were determined and the ratio plotted against the concentrations of the cold competitor antibodies according to the method of Berzofsky and Berkower (J. A. Berzofsky and I. J. Berkower, in Fundamental Immunology, W. E. Paul, Raven Press, New York, pp. 595-644 (1984)).

[2] = target: T1, human B7-1 (CD80) expressed on the cell …; test: competition binding on CHO cells expressing rhB7-1: unlabeled competitor against 125I-humanized 1F1 tracer, bound/free ratio
Experimental: as §1

[3] = target: T2, human B7-2 (CD86) expressed on the cell surface (CHO/hB7-2 cells) (human, UniProt P42081 24-329); test: cell-based or functional assay
T2 sequence (looked up): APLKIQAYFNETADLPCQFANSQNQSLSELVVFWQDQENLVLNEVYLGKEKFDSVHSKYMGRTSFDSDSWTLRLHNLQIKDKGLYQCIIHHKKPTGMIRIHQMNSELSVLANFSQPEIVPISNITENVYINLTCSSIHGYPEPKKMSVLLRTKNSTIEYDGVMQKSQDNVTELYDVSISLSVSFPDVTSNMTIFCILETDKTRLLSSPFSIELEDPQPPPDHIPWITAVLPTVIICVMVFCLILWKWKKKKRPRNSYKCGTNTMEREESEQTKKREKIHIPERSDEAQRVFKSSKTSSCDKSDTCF

[4] = target: T1, human B7-1 (CD80) expressed on the cell …; test: 125I direct binding, CHO cells expressing B7-1 as control for non-specific binding
Excerpt: (§2) Binding assays were begun by plating cells onto 96-well tissue culture plates at 10,000 CHO/hB7-2 cells per well. Two days later, adherent cells were gently washed with assay buffer containing nonfat dry milk protein (for blocking nonspecific binding) and sodium azide (to prevent internalization of antibodies by cells). For direct binding assays, ¹²⁵I-labeled anti-B7 antibodies (¹²⁵I-murine anti-human B7-2; 826 cpm/fmol; humanized anti-human B7-2, 883 cpm/fmol) were serially diluted in assay buffer and incubated on cells overnight, allowing antibodies to bind to cell-surface B7 and come to equilibrium. Unbound antibody was gently washed from cells, and bound ¹²⁵I-labeled antibody was detected using an ¹²⁵I scintillant and photodetector system. Non-specific binding to CHO cells was determined for each dilution in the same manner, but on cells expressing the B7-1 molecule that is not recognized by the antibody being tested.

[5] = target: T3, human B7-2Ig (recombinant soluble hB7-2Ig) (human, UniProt P42081 24-247); test: SPR (BIACORE), hB7-2Ig immobilized, bivalent model, mean of three runs
T3 construct: extracellular domain; Secreted by CHO cells, purified on protein A, immobilized on the BIACORE chip; not shown: hinge-CH2-CH3 domains of the human IgG1 heavy chain
T3 sequence (looked up): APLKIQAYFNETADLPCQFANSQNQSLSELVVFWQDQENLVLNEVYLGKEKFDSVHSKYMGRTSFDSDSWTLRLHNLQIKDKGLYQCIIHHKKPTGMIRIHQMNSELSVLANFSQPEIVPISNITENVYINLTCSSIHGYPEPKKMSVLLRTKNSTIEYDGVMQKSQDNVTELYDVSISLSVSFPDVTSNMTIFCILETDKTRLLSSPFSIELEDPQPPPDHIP
Experimental: (§3) The BIACORE® biosensor (BIACORE®; Uppsalla, Sweden) was used to determine binding kinetics of murine and humanized anti-B7-2 human antibodies to human B7-2Ig. Hunan B7-2Ig (hB7-2Ig) was immobilized onto the dextran matrix of a BIACORE® sensor chip. Humanized and murine anti-human B7-2 were tested at 200, 100, 50, and 20 nM. Each dilution was tested 4 times per run and a total of three separate runs performed. Anti-human B7-2 antibody binding was measured in real time by Surface Plasmon Resonance (SPR) and global analysis was performed using the bivalent binding model in BIA evaluation software (version 3.1). For each sample, the association (kₐ), dissociation (kd), and equilibrium dissociation constant (KD) were determined.

[6] = target: T2, human B7-2 (CD86) expressed on the cell …; test: direct binding of 125I-labeled antibody to CHO/hB7-2 cells, half-maximal binding
Excerpt: as §2
The data, means of triplicate wells with nonspecific binding subtracted, were fit to a hyperbolic saturation curve using Graphpad PrismJ software. […] Both murine and humanized anti-B7-2 antibodies recognize cell surface expressed hB7-2 with high affinity.

[7] = target: T2, human B7-2 (CD86) expressed on the cell …; test: competitive binding against 125I-murine 3D1 on CHO/hB7-2 cells
Experimental: (§4) The relative affinities, of the murine and humanized 3D1 antibodies for the B7-2 antigen were determined by competitive binding assays. Three-fold serial dilutions of unlabeled humanized or murine 3D1 antibodies were mixed with a fixed amount of radio-iodinated murine 3D1 antibody (40,000-50,000 cpm per test in PBS containing 2% fetal calf serum).
(§5) 1×10⁵ CHO cells expressing cell surface rhB7-2 (CHO/hB7-2) were added subsequently and the mixture (in a total volume of 200 μL) was incubated for 2 hr at 4° C. with gentle shaking. The cell-antibody suspension was then transferred to Sarstedt Micro Tubes (part #72.702) containing 100 μL of 80% dibutyl phthalate-20% olive oil. After centrifugation in a microfuge, the Sarstedt tubes were plunged into dry ice for several minutes. Cell-bound ¹²⁵I was determined by clipping tips of each tube (containing cell pellets) into scintillation vials and counting in a gamma counter. Bound and free counts were determined and the ratio plotted against the concentrations of the cold competitor antibodies according to the method of Berzofsky and Berkower (J. A. Berzofsky and I. J. Berkower, in Fundamental Immunology 9ed. W. E. Paul), Raven Press (New York), 595 (1984)).

[8] = target: T2, human B7-2 (CD86) expressed on the cell …; test: competition binding on CHO/hB7-2 cells: unlabeled competitor against 125I-murine 3D1 tracer, bound/free ratio
Experimental: as §4, §5

[9] = target: T3, human B7-2Ig (recombinant soluble …); test: SPR (BIACORE), hB7-2Ig immobilized
Experimental: as §3

Row | Binder | IC50 of inhibition of CD28+ human T cell proliferation stimulated with PMA and CHO/hB7-2 cells [3] [nM] | binding result [4] | Kd [5] [nM] | Kd [6] [nM] | Ka [7] [M⁻¹] | also measured
1 | B1 |  |  |  |  |  | Ka [1]: ~1e+09 M⁻¹; IC50 (read off the curve) [2]: ~1 nM
2 | B2 | 0.05 | no binding | 5.1 | ~1 |  | 
3 | B3 |  |  |  |  | ~1e+09 | 
4 | B4 |  |  |  |  | ~1e+09 | IC50 (read off the curve) [8]: ~1 nM
5 | B5 | 0.072 | no binding | 1.8 | ~1 | ~1e+09 | fold higher affinity than the humanized anti-B7-2 mAb [9]: ~2.8 fold
